From the supplement of paper PMC10567573

B1: KCNAB2 (parent)
chain: IPPYSRASLKGYQWLKDKILSEEG
B2: SPSB4 (parent)
chain: LDMDEGTLSFIVDGQYLGVAFRGL

Variants of: B1
Test: protein stability index of a GFP-peptide fusion (GPS, HEK-293T) (PSI 1-6); higher = more stable
Details: c terminus: a fixed tail appended
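Also: lentivirally expressed fusions sorted by FACS into six bins by GFP to DsRed ratio, PSI derived from sequencing read proportions per bin multiplied by bin number.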

Protein stability index, by site and new letter:
Q13: C 1.84; G 1.93; F 2.6; N 2.32; L 1.16; K 1.74; V 2.08; P 2.03; S 2.95; A 1.82; H 2.46; Y 1.53; T 2.55; E 2.34; D 3.63; R 2.49
W14: I 3.45; D 3.73; K 3.65; P 3.97; A 3.76; V 3.6; F 4.47; G 4.07; T 3.3; Y 3.32; R 3.73; S 2.95; L 3.57; Q 3.04; H 3.57; N 3.78; M 3.66; E 3.59
Y12: C 3.04; G 3.5; T 3.81; A 3.34; V 2.71; F 2.84; P 3.17; R 3.44; I 2.45; E 3.87; L 2.51; Q 3.18; S 4.02; H 3.62; D 3.97; N 3.13; W 1.32; K 4.35
L9: N 3.15; D 2.44; M 2.24; H 2.38; S 3.84; G 3.22; A 2.56; C 1.77; Q 2.28; I 2.56; T 3.14; P 3.25; E 3.2; R 3.33; F 2.61; K 2.53; Y 2.4; W 2.22
D17: Q 2.18; N 2.39; C 1.3; R 1.91; M 1.57; E 1.26; S 1.6; G 2.03; V 2.51; W 1.72; I 1.69; F 2.25; T 1.68; A 2.65; Y 1.8; L 1.93; P 2.46; K 2.04; H 2.69
P3: V 2.3; H 1.74; E 2.5; C 1.51; K 2.75; D 3.1; Q 2.54; R 3.2; Y 2.53; T 2.06; L 3.1; N 2.48; I 2.28; S 2.62; G 1.78; F 2.85; A 2.27
Y4: S 2.92; G 2.76; Q 2.96; R 2.35; M 1.83; F 2.14; I 2.29; L 1.34; D 4.41; C 1.6; K 2.77; A 2.77; T 2.33; V 2.49; N 3.1; W 1.12; E 4.16
K18: L 1.6; M 2.78; Q 3.23; N 3.29; V 3.75; H 1.98; E 2.95; R 1.02; S 3.17; P 2.83; I 1.71; D 2.77; T 2.11; C 2.51; A 2.63; F 1.96; G 2.95
S8: G 1.96; Y 1.9; A 2.6; Q 2.72; I 1.58; N 2.53; P 2.64; E 1.31; H 2.97; T 2.24; D 2.53; F 2.21
P2: I 1.25; L 2.04; N 1.86; Y 2.56; H 1.92; Q 2.92; M 1.37; R 2.62; K 2.02; S 2.66; E 2.87; T 1.62; A 1.52; V 3.44; C 1.88; D 1.7; F 2.2
A7: T 2.23; S 3.32; N 2.22; I 1.93; Q 2.58; P 2.45; G 2.58; R 1.95; Y 1.46; F 2.23; D 3.15; E 2.86; K 1.9; M 1.8; V 2.41; L 3.23; C 1.59
K10: G 2.88; M 2.4; E 3.57; L 2.37; Q 3.27; R 1.68; A 2.47; S 3.34; H 2.91; P 3.76; F 1.67; V 2.14; C 1.72; W 2.29; N 2.42; Y 2.84; T 3.38; D 3.49; I 2.2
L15: T 3.08; N 3.64; D 4.13; G 3.2; Q 3.52; W 2.18; E 3.19; C 3.47; R 2.37; P 3.61; M 2.47; H 3.73; I 2.11; A 3.71; V 2.91; S 3.53; K 3.22; Y 2.19; F 2.59
I1: A 2.6; L 2.08; F 2.15; S 3.37; G 2.19; E 3.38; K 2.33; D 3.51; H 2.59; V 2.77; C 2.43; P 2.82; M 2.19; N 2.5; T 2.99
R6: P 2.67; G 2.53; E 3.93; H 2.2; N 2.74; I 2.06; T 2.59; Y 1.6; Q 3.23; A 2.82; K 2.56; S 3.06; M 1.95; F 2.16; L 2.45; V 1.7; C 1.94
K16: G 3.26; M 1.71; I 2.49; R 3.2; W 2.29; Q 2.31; N 3.29; E 2.19; D 3.77; L 1.02; Y 1.84; T 2.74; V 2.08; A 1.82; H 1.53; C 3.16; S 2.38; P 3.39
G11: N 2.68; P 2.46; I 2.37; D 2.89; Y 2.91; K 1.78; W 3.38; M 2.08; A 1.8; H 2.19; S 1.64; R 2.66; C 1.92; F 3.33; T 2.1; Q 2.96; E 3.51
S5: K 2; F 3.12; Q 2.45; N 2.21; D 2.8; T 2.42; Y 2.79; G 3.42; H 2.63; R 1.82; E 3.09; P 3.12; A 2.15

Variants of: B2
Test: as above
Details: c terminus: a fixed tail appended

Protein stability index, by site and new letter:
G23: W 4; I 2.48; M 2.84; Q 1.47; T 2.5; P 2.1; R 1.88; V 3.48; S 3.28; N 2.38; K 1.97
L24: A 1.22; F 3.21; N 2.19; W 2.54; V 3.18; D 1.78; P 2.78; C 2.43; Y 2.76; K 1.65; T 2.67; I 3.11; E 1.48; G 1.69; S 1.88; R 2.11; M 1.84; Q 2.6; H 3.29
